# Laboratory results as given in publication PMC4108320, “Two Structurally Different Dienelactone Hydrolases (TfdEI and TfdEII) from Cupriavidus necator JMP134 Plasmid pJP4 Catalyse Cis- and Trans-Dienelactones with Similar Efficiency” (PLoS ONE, 2014).
# B1: TfdEI (Cupriavidus pinatubonensis JMP134) (protein)
# chain: MLSDGVEITSRSGGRFGAYLGKPTTDSAPIVVIAQEIFGITPFIRETVEWLVGAGFGCVCPDLYWRQAPNIELDANVPSEREQALALFRDFDMEAGVNDLSCAIEYARALPFSNGRVAVVGYCLGGALAFDVAARSLADCSIGYYGVGLEKKVSLVPAITRPAMFHMGTKDHYVTEEARSILEEHFGRNKNLSLHWYPVGHSFARSSSPNFDQAATTVANARTLELLAMLKDPS
# notes: full-length tfdEI ORF (705 bp, 234 aa) in pET21b BamHI/HindIII; stop codon in reverse primer; E. coli BL21(DE3); about 25 kDa, monomeric
# B2: TfdEII (Cupriavidus pinatubonensis JMP134) (protein)
# chain: MCHDTAPALFPRTASTGSIDGAICALCYAGATRGPRLLVLPDIYGCNAFYRGYAAYLAEQGAGEVLLVDPFAAFGELATVTREAAFQRRHRLADRAYVEELIDFIDGQRIEGVVGFCLGGLFVFELARQQVVSRLVAYYPFPQGLENRDPLDVPFDYLPALRSRHTVIVGDDDALLGTQNLQRLQAQARANDAIDLHIMNGAGHGFLADLESPDTARAAVAKRGLRIGTTTLLGG
# notes: full-length tfdEII ORF (708 bp, 235 aa) in pET21b BamHI/HindIII; stop codon in reverse primer; E. coli BL21(DE3); about 25 kDa, monomeric
# Substrate: O=C(O)/C=C1/C=CC(=O)O1
# Assay: purified protein
# Assay type: biochemical, Cupriavidus pinatubonensis
# Conditions: Tris-Cl pH 7.0, 37 °C, 0.5 µM enzyme, 1-1000 µM substrate
Protein,Km,Vmax
B1,84 µM,9.09 µM/min
B2,178 µM,8.38 µM/min
